No end group written: not given here.
Experiments:
[1] = biological target: the molecule itself; assay: AUC + other: dynamic light scattering; sedimentation velocity, 20 °C, 45,000 r.p.m., 37 μM, 5 mM sodium phosphate pH 6.3; DLS at 0.1 mg/mL, 25 °C, same buffer
[2] = biological target: T1, cytochrome c (Cc), recombinant (human, UniProt P99999 1-105, heme group; 15N-labelled for the 2D NMR titrations); assay: ITC; Auto-ITC200, 25 °C; 2-μL injections of 300 μM Cc into the cell with 20 μM 14-3-3ε species or peptide; 10 mM sodium phosphate pH 7.4; details: both partners purified
T1 construct: Met80 is M81 in P99999); Reduced with sodium ascorbate in the NMR experiments; also called hemeprotein; reduced Cc; source: E. coli BL21 (DE3), purified (ionic chromatography, carboxy-methylcellulose)
T1 sequence (P99999 whole entry): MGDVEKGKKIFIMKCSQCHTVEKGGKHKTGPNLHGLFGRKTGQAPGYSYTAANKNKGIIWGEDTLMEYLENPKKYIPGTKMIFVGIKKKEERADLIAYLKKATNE

[3] = biological target: T1, cytochrome c (Cc), recombinant; assay: NMR titration; 50 μM reduced 15N-labelled Cc titrated with unlabeled 14-3-3ε FL (700 MHz) or 14-3-3ε_(234-255) peptide (600 MHz); 1D 1H and 2D [1H,15N] HSQC; 25 °C; 5 mM sodium phosphate pH 6.3, 0.1 M sodium ascorbate; CSP curves fitted with a one-site model; details: both partners purified
[4] = biological target: T1, cytochrome c (Cc), recombinant; assay: NMR titration; 1D 19F NMR of the fluorinated 14-3-3ε_(234-255) peptide titrated with Cc or BSA; 25 °C; 600 MHz; 10 mM sodium phosphate pH 6.3; details: both partners purified

| Binder | stoichiometry N [1] | other results |
| --- | --- | --- |
| 14-3-3ε FL D21K (natural protein, UniProt P62258 1-255, looked up, 14-3-3ε full length with D21K; source: E. coli BL21 (DE3), purified (Ni Sepharose); mutant obtained from Mutagenex Inc) MDDREDLVYQAKLAEQAERYKEMVESMKKVAGMDVELTVEERNLLSVAYKNVIGARRASWRIISSIEQKEENKGGEDKLKMIREYRQMVETELKLICCDILDVLDKHLIPAANTGESKVFYYKMKGDYHRYLAEFATGNDRKEAAENSLVAYKAASDIAMTELPPTHPIRLGLALNFSVFYYEILNSPDRACRLAKAAFDDAIAELDTLSEESYKDSTLIMQLLRDNLTLWTSDMQGDGEEQNKEALQDVEDENQ | 2 | – |
| 14-3-3ε FL K50E (natural protein, UniProt P62258 1-255, looked up, 14-3-3ε full length with K50E; source: E. coli BL21 (DE3), purified (Ni Sepharose); mutant obtained from Mutagenex Inc) MDDREDLVYQAKLAEQAERYDEMVESMKKVAGMDVELTVEERNLLSVAYENVIGARRASWRIISSIEQKEENKGGEDKLKMIREYRQMVETELKLICCDILDVLDKHLIPAANTGESKVFYYKMKGDYHRYLAEFATGNDRKEAAENSLVAYKAASDIAMTELPPTHPIRLGLALNFSVFYYEILNSPDRACRLAKAAFDDAIAELDTLSEESYKDSTLIMQLLRDNLTLWTSDMQGDGEEQNKEALQDVEDENQ | 2 | – |
| 14-3-3ε FL S187D (natural protein, UniProt P62258 1-255, looked up, 14-3-3ε full length with S187D; source: E. coli BL21 (DE3), purified (Ni Sepharose); mutant obtained from Mutagenex Inc) MDDREDLVYQAKLAEQAERYDEMVESMKKVAGMDVELTVEERNLLSVAYKNVIGARRASWRIISSIEQKEENKGGEDKLKMIREYRQMVETELKLICCDILDVLDKHLIPAANTGESKVFYYKMKGDYHRYLAEFATGNDRKEAAENSLVAYKAASDIAMTELPPTHPIRLGLALNFSVFYYEILNDPDRACRLAKAAFDDAIAELDTLSEESYKDSTLIMQLLRDNLTLWTSDMQGDGEEQNKEALQDVEDENQ | 2 | – |
| 14-3-3ε FL S59E (natural protein, UniProt P62258 1-255, looked up, 14-3-3ε full length with S59E; source: E. coli BL21 (DE3), purified (Ni Sepharose); mutant obtained from Mutagenex Inc) MDDREDLVYQAKLAEQAERYDEMVESMKKVAGMDVELTVEERNLLSVAYKNVIGARRAEWRIISSIEQKEENKGGEDKLKMIREYRQMVETELKLICCDILDVLDKHLIPAANTGESKVFYYKMKGDYHRYLAEFATGNDRKEAAENSLVAYKAASDIAMTELPPTHPIRLGLALNFSVFYYEILNSPDRACRLAKAAFDDAIAELDTLSEESYKDSTLIMQLLRDNLTLWTSDMQGDGEEQNKEALQDVEDENQ | 2 | – |
| 14-3-3ε FL E92K (natural protein, UniProt P62258 1-255, looked up, 14-3-3ε full length with E92K; source: E. coli BL21 (DE3), purified (Ni Sepharose); mutant obtained from Mutagenex Inc) MDDREDLVYQAKLAEQAERYDEMVESMKKVAGMDVELTVEERNLLSVAYKNVIGARRASWRIISSIEQKEENKGGEDKLKMIREYRQMVETKLKLICCDILDVLDKHLIPAANTGESKVFYYKMKGDYHRYLAEFATGNDRKEAAENSLVAYKAASDIAMTELPPTHPIRLGLALNFSVFYYEILNSPDRACRLAKAAFDDAIAELDTLSEESYKDSTLIMQLLRDNLTLWTSDMQGDGEEQNKEALQDVEDENQ | 2 | – |
| 14-3-3ε FL D99K (natural protein, UniProt P62258 1-255, looked up, 14-3-3ε full length with D99K; source: E. coli BL21 (DE3), purified (Ni Sepharose); mutant obtained from Mutagenex Inc) MDDREDLVYQAKLAEQAERYDEMVESMKKVAGMDVELTVEERNLLSVAYKNVIGARRASWRIISSIEQKEENKGGEDKLKMIREYRQMVETELKLICCKILDVLDKHLIPAANTGESKVFYYKMKGDYHRYLAEFATGNDRKEAAENSLVAYKAASDIAMTELPPTHPIRLGLALNFSVFYYEILNSPDRACRLAKAAFDDAIAELDTLSEESYKDSTLIMQLLRDNLTLWTSDMQGDGEEQNKEALQDVEDENQ | 2 | – |
| Ac-DMQGDGEEQNKEALQDVEDENQ (peptide, UniProt P62258 234-255, looked up, 14-3-3ε, C-terminal tail, residues 234-255, N-terminally acetylated; also called acetylated peptide) [acetylated 14-3-3ε_(234-255) peptide] | – | binding result [2]: binds |
| DMQGDGEEQNKEALQDVEDENQ (peptide, UniProt P62258 234-255, looked up, 14-3-3ε, C-terminal tail, residues 234-255; also called non-acetylated peptide; C-terminal tail of 14-3-3ε; source: bought: Genosphere Biotechnologies (France)) [14-3-3ε C-terminal peptide (14-3-3ε_(234-255))] | – | Kd [3]: 49 µM; Kd [2]: 16 µM |
| Ac-DMQGDGEEQNK(5‑fluorindole)EALQDVEDENQ (peptide, UniProt P62258 234-255, looked up, 14-3-3ε, C-terminal tail, residues 234-255; source: acetylated 14-3-3ε_(234-255) peptide conjugated with 5-fluoroindole (formaldehyde, 24 h, 30 °C), dialyzed) [fluorinated 14-3-3ε_(234-255) peptide (Lys244 covalently bound to 5-fluorindole)] | – | binding result [4]: binds |
